In the supplement of paper PMC5998384:

How the values were obtained:
[1] = system: HeLa Kyoto; assay: solubility in G1/S (NP-40 vs SDS abundance) (log2 ratio); higher = more soluble; conditions: cell cycle stage: G1/S
[2] = system: HeLa Kyoto; assay: melting temperature (median over replicates), in situ; higher = more thermally stable
[3] = system: HeLa Kyoto; assay: solubility change mitosis vs G1/S (difference of NP-40 vs SDS log2 ratios) (log2 ratio difference); higher = more soluble in mitosis
[4] = system: HeLa Kyoto; assay: thermal stability score vs G1/S (z-score of summed log2 fold changes over temperatures); higher = more thermally stable than in G1/S
[5] = cell cycle stage: early G1 (4.5 h after nocodazole release)
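Wherever melting temperature (median over replicates), in situ is given: HeLa Kyoto cells synchronized by double thymidine or nocodazole block, proteins quantified by TMT10plex mass spectrometry, three independent biological replicates.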
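Wherever solubility change mitosis vs G1/S (difference of NP-40 vs SDS log2 ratios) is given: synchronized HeLa Kyoto cells (double thymidine block for G1/S, nocodazole release for mitosis), protein amounts in NP-40 versus SDS lysates quantified by mass spectrometry, three biological replicates.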
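Wherever solubility in G1/S (NP-40 vs SDS abundance) is given: HeLa Kyoto cells arrested at G1/S by double thymidine block, proteins quantified by TMT10plex mass spectrometry in mild NP-40 versus SDS extracts, three biological replicates.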
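Wherever thermal stability score vs G1/S (z-score of summed log2 fold changes over temperatures) is given: synchronized HeLa Kyoto cells, proteins quantified by TMT10plex mass spectrometry, three biological replicates, mitosis taken 0.5 h after nocodazole release, G1/S directly after double thymidine block.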

Chain of TAF15 (chain, as listed by the source): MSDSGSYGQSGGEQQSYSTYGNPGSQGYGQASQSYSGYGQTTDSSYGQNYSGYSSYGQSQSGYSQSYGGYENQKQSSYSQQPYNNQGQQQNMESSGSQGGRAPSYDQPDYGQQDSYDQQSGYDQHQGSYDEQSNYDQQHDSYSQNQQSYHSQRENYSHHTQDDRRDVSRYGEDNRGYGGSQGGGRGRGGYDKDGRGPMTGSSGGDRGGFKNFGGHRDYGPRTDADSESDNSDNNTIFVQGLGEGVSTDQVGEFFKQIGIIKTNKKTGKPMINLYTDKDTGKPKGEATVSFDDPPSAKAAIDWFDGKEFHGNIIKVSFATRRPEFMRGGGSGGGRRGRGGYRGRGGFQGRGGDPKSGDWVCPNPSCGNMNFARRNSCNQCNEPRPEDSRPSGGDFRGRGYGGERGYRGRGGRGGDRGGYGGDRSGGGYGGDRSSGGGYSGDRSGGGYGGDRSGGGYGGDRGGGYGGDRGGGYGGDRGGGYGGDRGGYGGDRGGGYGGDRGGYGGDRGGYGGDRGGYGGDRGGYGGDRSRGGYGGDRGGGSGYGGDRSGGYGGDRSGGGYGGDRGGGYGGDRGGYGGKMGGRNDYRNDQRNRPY

| Substance | solubility in G1/S (log2) [1] | melting temperature ([2]; cell cycle stage: G1/S) | melting temperature ([2]; cell cycle stage: mitosis) | solubility change mitosis (log2) [3] | thermal stability score [4, 5] | thermal stability score ([4]; cell cycle stage: mitosis) |
| --- | --- | --- | --- | --- | --- | --- |
| MDNSGKEAEAMALLAEAERKVKNSQSFFSGLFGGSSKIEEACEIYARAANMFKMAKNWSAAGNAFCQAAQLHLQLQSKHDAATCFVDAGNAFKKADPQEAINCLMRAIEIYTDMGRFTIAAKHHISIAEIYETELVDIEKAIAHYEQSADYYKGEESNSSANKCLLKVAGYAALLEQYQKAIDIYEQVGTNAMDSPLLKYSAKDYFFKAALCHFCIDMLNAKLAVQKYEELFPAFSDSRECKLMKKLLEAHEEQNVDSYTESVKEYDSISRLDQWLTTMLLRIKKTIQGDEEDLR [NAPA] | 0.324 | 51.7 °C | 52.2 °C | 0.0471 | -0.447 | -0.81 |
| MNQEKLAKLQAQVRIGGKGTARRKKKVVHRTATADDKKLQSSLKKLAVNNIAGIEEVNMIKDDGTVIHFNNPKVQASLSANTFAITGHAEAKPITEMLPGILSQLGADSLTSLRKLAEQFPRQVLDSKAPKPEDIDEEDDDVPDLVENFDEASKNEAN [BTF3L4] | 0.114 | 56.3 °C | 54.6 °C | 0.243 | -0.215 | -1.23 |
| MASACGAPGPGGALGSQAPSWYHRDLSRAAAEELLARAGRDGSFLVRDSESVAGAFALCVLYQKHVHTYRILPDGEDFLAVQTSQGVPVRRFQTLGELIGLYAQPNQGLVCALLLPVEGEREPDPPDDRDASDGEDEKPPLPPRSGSTSISAPTGPSSPLPAPETPTAPAAESAPNGLSTVSHDYLKGSYGLDLEAVRGGASHLPHLTRTLATSCRRLHSEVDKVLSGLEILSKVFDQQSSPMVTRLLQQQNLPQTGEQELESLVLKLSVLKDFLSGIQKKALKALQDMSSTAPPAPQPSTRKAKTIPVQAFEVKLDVTLGDLTKIGKSQKFTLSVDVEGGRLVLLRRQRDSQEDWTTFTHDRIRQLIKSQRVQNKLGVVFEKEKDRTQRKDFIFVSARKREAFCQLLQLMKNKHSKQDEPDMISVFIGTWNMGSVPPPKNVTSWFTSKGLGKTLDEVTVTIPHDIYVFGTQENSVGDREWLDLLRGGLKELTDLDYRPIAMQSLWNIKVAVLVKPEHENRISHVSTSSVKTGIANTLGNKGAVGVSFMFNGTSFGFVNCHLTSGNEKTARRNQNYLDILRLLSLGDRQLNAFDISLRFTHLFWFGDLNYRLDMDIQEILNYISRKEFEPLLRVDQLNLEREKHKVFLRFSEEEISFPPTYRYERGSRDTYAWHKQKPTGVRTNVPSWCDRILWKSYPETHIICNSYGCTDDIVTSDHSPVFGTFEVGVTSQFISKKGLSKTSDQAYIEFESIEAIVKTASRTKFFIEFYSTCLEEYKKSFENDAQSSDNINFLKVQWSSRQLPTLKPILADIEYLQDQHLLLTVKSMDGYESYGECVVALKSMIGSTAQQFLTFLSHRGEETGNIRGSMKVRVPTERLGTRERLYEWISIDKDEAGAKSKAPSVSRGSQEPRSGSRKPAFTEASCPLSRLFEEPEKPPPTGRPPAPPRAAPREEPLTPRLKPEGAPEPEGVAAPPPKNSFNNPAYYVLEGVPHQLLPPEPPSPARAPVPSATKNKVAITVPAPQLGHHRHPRVGEGSSSDEESGGTLPPPDFPPPPLPDSAIFLPPSLDPLPGPVVRGRGGAEARGPPPPKAHPRPPLPPGPSPASTFLGEVASGDDRSCSVLQMAKTLSEVDYAPAGPARSALLPGPLELQPPRGLPSDYGRPLSFPPPRIRESIQEDLAEEAPCLQGGRASGLGEAGMSAWLRAIGLERYEEGLVHNGWDDLEFLSDITEEDLEEAGVQDPAHKRLLLDTLQLSK [INPPL1] | 0.0138 | 48.6 °C | 48.6 °C | -0.119 | 0.612 | 2.56 |
| MLAARLVCLRTLPSRVFHPAFTKASPVVKNSITKNQWLLTPSREYATKTRIGIRRGRTGQELKEAALEPSMEKIFKIDQMGRWFVAGGAAVGLGALCYYGLGLSNEIGAIEKAVIWPQYVKDRIHSTYMYLAGSIGLTALSAIAISRTPVLMNFMMRGSWVTIGVTFAAMVGAGMLVRSIPYDQSPGPKHLAWLLHSGVMGAVVAPLTILGGPLLIRAAWYTAGIVGGLSTVAMCAPSEKFLNMGAPLGVGLGLVFVSSLGSMFLPPTTVAGATLYSVAMYGGLVLFSMFLLYDTQKVIKRAEVSPMYGVQKYDPINSMLSIYMDTLNIFMRVATMLATGGNRKK [GHITM] | -0.101 | 54.7 °C | 55.1 °C | 0.0227 | -2.96 | -4.77 |
| MAAEWASRFWLWATLLIPAAAVYEDQVGKFDWRQQYVGKVKFASLEFSPGSKKLVVATEKNVIAALNSRTGEILWRHVDKGTAEGAVDAMLLHGQDVITVSNGGRIMRSWETNIGGLNWEITLDSGSFQALGLVGLQESVRYIAVLKKTTLALHHLSSGHLKWVEHLPESDSIHYQMVYSYGSGVVWALGVVPFSHVNIVKFNVEDGEIVQQVRVSTPWLQHLSGACGVVDEAVLVCPDPSSRSLQTLALETEWELRQIPLQSLDLEFGSGFQPRVLPTQPNPVDASRAQFFLHLSPSHYALLQYHYGTLSLLKNFPQTALVSFATTGEKTVAAVMACRNEVQKSSSSEDGSMGSFSEKSSSKDSLACFNQTYTINLYLVETGRRLLDTTITFSLEQSGTRPERLYIQVFLKKDDSVGYRALVQTEDHLLLFLQQLAGKVVLWSREESLAEVVCLEMVDLPLTGAQAELEGEFGKKADGLLGMFLKRLSSQLILLQAWTSHLWKMFYDARKPRSQIKNEINIDTLARDEFNLQKMMVMVTASGKLFGIESSSGTILWKQYLPNVKPDSSFKLMVQRTTAHFPHPPQCTLLVKDKESGMSSLYVFNPIFGKWSQVAPPVLKRPILQSLLLPVMDQDYAKVLLLIDDEYKVTAFPATRNVLRQLHELAPSIFFYLVDAEQGRLCGYRLRKDLTTELSWELTIPPEVQRIVKVKGKRSSEHVHSQGRVMGDRSVLYKSLNPNLLAVVTESTDAHHERTFIGIFLIDGVTGRIIHSSVQKKAKGPVHIVHSENWVVYQYWNTKARRNEFTVLELYEGTEQYNATAFSSLDRPQLPQVLQQSYIFPSSISAMEATITERGITSRHLLIGLPSGAILSLPKALLDPRRPEIPTEQSREENLIPYSPDVQIHAERFINYNQTVSRMRGIYTAPSGLESTCLVVAYGLDIYQTRVYPSKQFDVLKDDYDYVLISSVLFGLVFATMITKRLAQVKLLNRAWR [EMC1] | 0.0605 | 55.1 °C | 54.8 °C | -0.266 | 1.42 | 1.57 |
| ARFGEF1 | -0.319 | 50.8 °C | 50.1 °C | -0.109 | 0.51 | 0.0301 |
| VWA8 | -0.224 | 50.3 °C | 50.4 °C | -0.0997 | 1.66 | 1.12 |
| TAF15 | -0.786 | 51.1 °C | 53.1 °C | 0.12 | -0.357 | -4.49 |
| MAAAAARVVLSSAARRRLWGFSESLLIRGAAGRSLYFGENRLRSTQAATQVVLNVPETRVTCLESGLRVASEDSGLSTCTVGLWIDAGSRYENEKNNGTAHFLEHMAFKGTKKRSQLDLELEIENMGAHLNAYTSREQTVYYAKAFSKDLPRAVEILADIIQNSTLGEAEIERERGVILREMQEVETNLQEVVFDYLHATAYQNTALGRTILGPTENIKSISRKDLVDYITTHYKGPRIVLAAAGGVSHDELLDLAKFHFGDSLCTHKGEIPALPPCKFTGSEIRVRDDKMPLAHLAIAVEAVGWAHPDTICLMVANTLIGNWDRSFGGGMNLSSKLAQLTCHGNLCHSFQSFNTSYTDTGLWGLYMVCESSTVADMLHVVQKEWMRLCTSVTESEVARARNLLKTNMLLQLDGSTPICEDIGRQMLCYNRRIPIPELEARIDAVNAETIREVCTKYIYNRSPAIAAVGPIKQLPDFKQIRSNMCWLRD [PMPCB] | 0.179 | 51.7 °C | 52.1 °C | -0.0473 | -0.694 | -1.33 |
| MAANKPKGQNSLALHKVIMVGSGGVGKSALTLQFMYDEFVEDYEPTKADSYRKKVVLDGEEVQIDILDTAGQEDYAAIRDNYFRSGEGFLCVFSITEMESFAATADFREQILRVKEDENVPFLLVGNKSDLEDKRQVSVEEAKNRAEQWNVNYVETSAKTRANVDKVFFDLMREIRARKMEDSKEKNGKKKRKSLAKRIRERCCIL [RALA] | 0.0126 | 58.9 °C | 57.4 °C | -0.0413 | -3.71 | -3.15 |
| MDMGNQHPSISRLQEIQKEVKSVEQQVIGFSGLSDDKNYKKLERILTKQLFEIDSVDTEGKGDIQQARKRAAQETERLLKELEQNANHPHRIEIQNIFEEAQSLVREKIVPFYNGGNCVTDEFEEGIQDIILRLTHVKTGGKISLRKARYHTLTKICAVQEIIEDCMKKQPSLPLSEDAHPSVAKINFVMCEVNKARGVLIALLMGVNNNETCRHLSCVLSGLIADLDALDVCGRTEIRNYRREVVEDINKLLKYLDLEEEADTTKAFDLRQNHSILKIEKVLKRMREIKNELLQAQNPSELYLSSKTELQGLIGQLDEVSLEKNPCIREARRRAVIEVQTLITYIDLKEALEKRKLFACEEHPSHKAVWNVLGNLSEIQGEVLSFDGNRTDKNYIRLEELLTKQLLALDAVDPQGEEKCKAARKQAVRLAQNILSYLDLKSDEWEY [BAG5] | 0.621 | 49.6 °C | 50.4 °C | -0.166 | 1.27 | 1.14 |
| MTTYSDKGAKPERGRFLHFHSVTFWVGNAKQATSFYCSKMGFEPLAYRGLETGSREVVSHVIKQGKIVFVLSSALNPWNKEMGDHLVKHGDGVKDIAFEVEDCDYIVQKARERGAKIMREPWVEQDKFGKVKFAVLQTYGDTTHTLVEKMNYIGQFLPGYEAPAFMDPLLPKLPKCSLEMIDHIVGNQPDQEMVSASEWYLKNLQFHRFWSVDDTQVHTEYSSLRSIVVANYEESIKMPINEPAPGKKKSQIQEYVDYNGGAGVQHIALKTEDIITAIRHLRERGLEFLSVPSTYYKQLREKLKTAKIKVKENIDALEELKILVDYDEKGYLLQIFTKPVQDRPTLFLEVIQRHNHQGFGAGNFNSLFKAFEEEQNLRGNLTNMETNGVVPGM [HPD] | 0.143 | 53.6 °C | 53.5 °C | -0.0296 | 1.14 | 1.46 |
| MDPRKVNELRAFVKMCKQDPSVLHTEEMRFLREWVESMGGKVPPATQKAKSEENTKEEKPDSKKVEEDLKADEPSSEESDLEIDKEGVIEPDTDAPQEMGDENAEITEEMMDQANDKKVAAIEALNDGELQKAIDLFTDAIKLNPRLAILYAKRASVFVKLQKPNAAIRDCDRAIEINPDSAQPYKWRGKAHRLLGHWEEAAHDLALACKLDYDEDASAMLKEVQPRAQKIAEHRRKYERKREEREIKERIERVKKAREEHERAQREEEARRQSGAQYGSFPGGFPGGMPGNFPGGMPGMGGGMPGMAGMPGLNEILSDPEVLAAMQDPEVMVAFQDVAQNPANMSKYQSNPKVMNLISKLSAKFGGQA [ST13] | 0.813 | 51.8 °C | 51.3 °C | 0.103 | 2.23 | 1.79 |
| MEFQAVVMAVGGGSRMTDLTSSIPKPLLPVGNKPLIWYPLNLLERVGFEEVIVVTTRDVQKALCAEFKMKMKPDIVCIPDDADMGTADSLRYIYPKLKTDVLVLSCDLITDVALHEVVDLFRAYDASLAMLMRKGQDSIEPVPGQKGKKKAVEQRDFIGVDSTGKRLLFMANEADLDEELVIKGSILQKHPRIRFHTGLVDAHLYCLKKYIVDFLMENGSITSIRSELIPYLVRKQFSSASSQQGQEEKEEDLKKKELKSLDIYSFIKEANTLNLAPYDACWNACRGDRWEDLSRSQVRCYVHIMKEGLCSRVSTLGLYMEANRQVPKLLSALCPEEPPVHSSAQIVSKHLVGVDSLIGPETQIGEKSSIKRSVIGSSCLIKDRVTITNCLLMNSVTVEEGSNIQGSVICNNAVIEKGADIKDCLIGSGQRIEAKAKRVNEVIVGNDQLMEI [EIF2B3] | -0.0277 | 50.5 °C | 50.7 °C | -0.222 | -0.882 | -0.4 |
